{
  "source": "paper doi:10.1101/475152",
  "target": "Mlh1-Pms1 DLDMMR (Saccharomyces cerevisiae (yeast; …, UniProt P38920;P14242 1-347+374-769;1-436+488-873, internal_change;internal_change)",
  "assay": "filter binding",
  "data": [
    {"binder": "49-mer homoduplex AO3142/AO3144 (dsDNA) DNA 1: GGGTCAACGTGGGCAAAGATGTCCTAGCAAGTCAGAATTCGGTAGCGTG DNA 2: CACGCTACCGAATTCTGACTTGCTAGGACATCTTTGCCCACGTTGACCC", "values": [
      {"measurement": "binding result", "result": "binds"}
    ]}
  ]
}
